Measurements published in PMC2063913 (The Journal of Cell Biology, 2006).
Values joined by “and” are separate entries in the source; they are usually repeats but may differ in a detail not shown here. Equal entries are not always repeated. Where two headings read alike, the source gives them in different places.

T1: Sfi1p fragment K246-E677 (15-repeat construct) (S. cerevisiae, UniProt Q12369 246-677)
T1 sequence (looked up): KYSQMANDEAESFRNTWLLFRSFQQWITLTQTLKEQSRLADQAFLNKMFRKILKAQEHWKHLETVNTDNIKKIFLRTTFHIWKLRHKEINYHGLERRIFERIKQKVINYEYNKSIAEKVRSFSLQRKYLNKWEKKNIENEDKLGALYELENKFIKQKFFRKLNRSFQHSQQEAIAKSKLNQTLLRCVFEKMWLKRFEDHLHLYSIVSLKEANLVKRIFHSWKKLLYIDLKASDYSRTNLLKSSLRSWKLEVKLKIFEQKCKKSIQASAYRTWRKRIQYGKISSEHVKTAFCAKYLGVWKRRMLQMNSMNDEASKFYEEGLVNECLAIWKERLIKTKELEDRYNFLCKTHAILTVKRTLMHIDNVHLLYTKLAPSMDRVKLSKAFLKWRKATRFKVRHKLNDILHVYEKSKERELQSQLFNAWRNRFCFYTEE

B1: Sfi1p fragment K643-E710 (two repeats; crystal 1 construct) (domain or fragment, S. cerevisiae, UniProt Q12369 643-710, looked up)
chain: KLNDILHVYEKSKERELQSQLFNAWRNRFCFYTEECNIQAISKRNYQLEKMVLKKFRERLLEIVKSEE
B2: Sfi1p fragment N218-H306 (three repeats; crystal 2 construct) (domain or fragment, S. cerevisiae, UniProt Q12369 218-306, looked up)
chain: NEEANRFANQAKLRVQEAVFYIWSDKTLKYSQMANDEAESFRNTWLLFRSFQQWITLTQTLKEQSRLADQAFLNKMFRKILKAQEHWKH
B3: yeast centrin (Cdc31p) (natural protein, S. cerevisiae)
chain: MSKNRSSLQSGPLNSELLEEQKQEIYEAFSLFDMNNDGFLDYHELKVAMKALGFELPKREILDLIDEYDSEGRHLMKYDDFYIVMGEKILKRDPLDEIKRAFQLFDDDHTGKISIKNLRRVAKELGETLTDEELRAMIEEFDLDGDGEINENEFIAICTDS

Assays:
yeast centrin (Cdc31p) [1] = biological target: B3; experiment: crystal structure
yeast centrin (Cdc31p) [2] = biological target: B3; experiment: crystal structure; remark: listed apart in the source
[3] = biological target: T1, Sfi1p fragment K246-E677 (15-repeat …); experiment: native MS

Binder: B1
- binding result (yeast centrin (Cdc31p) [1]): binds

Binder: B2
- binding result (yeast centrin (Cdc31p) [2]): binds

Binder: B3
- stoichiometry N [3]: 15 and 14
